Source: IntAct's records for PubMed 19804755

B1: DNA repair and telomere maintenance protein nbs1 (Schizosaccharomyces pombe (strain ATCC 38366 / 972)), O43070 (parent)
chain: MWIIEAEGDILKGKSRILFPGTYIVGRNVSDDSSHIQVISKSISKRHARFTILTPSEKDYFTGGPCEFEVKDLDTKFGTKVNEKVVGQNGDSYKEKDLKIQLGKCPFTINAYWRSMCIQFDNPEMLSQWASNLNLLGIPTGLRDSDATTHFVMNRQAGSSITVGTMYAFLKKTVIIDDSYLQYLSTVKESVIEDASLMPDALECFKNIIKNNDQFPSSPEDCINSLEGFSCAMLNTSSESHHLLELLGLRISTFMSLGDIDKELISKTDFVVLNNAVYDSEKISFPEGIFCLTIEQLWKIIIERNSRELISKEIERLKYATASNSTPQKIIQPQRHIQKNIVDDLFSVKKPLPCSPKSKRVKTLENLSIMDFVQPKQMFGKEPEGYLSNQSNNGSAQNKKSGDNSEKTKNSLKSSSKKSANTGSGQGKTKVEYVSYNSVDKGNSSPFKPLELNVVGEKKANAEVDSLPSENVQESEDDKAFEENRRLRNLGSVEYIRIMSSEKSNANSRHTSKYYSGRKNFKKFQKKASQKAPLQAFLSLSEHKKTEVFDQDDTDLEPVPRLMSKVESIPAGASSDKSGKSSISKKSSNSFKELSPKTNNDEDDEFNDLKFHF
partner: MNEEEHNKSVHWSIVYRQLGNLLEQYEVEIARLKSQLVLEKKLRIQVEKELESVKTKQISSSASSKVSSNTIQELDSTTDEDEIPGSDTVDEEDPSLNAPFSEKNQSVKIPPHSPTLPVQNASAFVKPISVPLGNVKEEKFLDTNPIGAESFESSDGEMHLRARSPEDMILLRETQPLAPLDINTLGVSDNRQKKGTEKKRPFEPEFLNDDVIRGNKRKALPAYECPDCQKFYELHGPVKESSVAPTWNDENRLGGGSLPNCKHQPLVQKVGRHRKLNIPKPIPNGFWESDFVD

Variants of: B1
Settings: with com1_schpo ctp1, O74986

| effect of a mutation on the interaction | Variant |
| --- | --- |
| decreasing interaction | R27A;K45A |
